In patent US10800813:
Numbered stars: 1 amine (or outer) side, 2 acyl side, 3 side chain; on linkers, the order of the positions; unused ones are H or OH. Bridge positions count the residues as written; N and C are the ends. Ends that are not written are not given here. TBMB = c1c(C[*:1])cc(C[*:3])cc1C[*:2]

Biological target: Human factor XIa (human), P03951
Test: enzyme inhibition assay
Settings: remark: other sources report otherwise

B1: 2A10 (peptide)
peptide: ACTYPYKCLHQNLCA
modifications: linker 2-8-14 via TBMB
**Q.** For B1, which Ki is on record?
**A.** 75 µM
